Test [1] has as its target T1, human VLA4-Fc (alpha4-Fc/beta1-Fc heterodimer) (human).
T1 construct: Soluble heterodimer from CHO cells, Protein A purified; also called VLA-Fc
Briefly: SPR (BIACORE), retest with new polypeptide preparations and new VLA4-Fc. How it is done: The kinetic 2D-VCAM-1 assay measures binding kinetics of a dimeric ligand (e.g., VLA-Fc fusion protein or LPAM-1-Fc fusion protein) coated to sensor chips and monomeric analyte (e.g., 2D-VCAM-1 variant polypeptides) in the mobile phase. Goat anti-human IgG antibody (Jackson ImmunoResearch, Catalog No. 105-005-098) was immobilized on CM-5 sensor chips (GE Healthcare, Catalog No. BR-1000-14) according to the manufacturer's protocol. Antibody was diluted to 30 μg/ml in immobilization buffer (10 mM sodium acetate, pH 5.0 (GE Healthcare, Catalog No. BR-1003-51)). […] Un-reacted sites were quenched with 35 μl of 1 M ethanolamine-HCl pH 8.5 (GE Healthcare, Catalog No. BR-1000-50). This procedure typically yielded 15,000 response units (RU) of coupled antibody. VLA4-Fc or LPAM-1-Fc, prepared as described in Examples 3 and 4, respectively, were bound to antibody-coated sensor chips by injection of 20 μl of ligand solution (20 μg/ml protein in HBS-P-Mn buffer at a flow rate of 10 μl/min). Ligand capture levels were typically 200-300 RU. 2D-VCAM-1 variant polypeptides were diluted in HBS-P-Mn and flowed over ligand-coated sensor chips for 2 min at 30 μl/min, followed by 5 min incubation with in HBS-P-Mn containing no protein at the same flow rate. For 2D-VCAM-1 variant polypeptides having very slow dissociation rates from VLA4-Fc or LPAM-1-Fc, kinetic assays were also conducted using longer dissociation times (e.g., 20 min). Rmax signal levels for 2D-VCAM-1 variant polypeptides ranged from approximately 5-25 RU. Regeneration between cycles was performed by 200 sec incubation with 10 mM glycine buffer (pH 1.7) at 50 μl/min. New chips were subjected to 4-5 cycles of capture/binding/regeneration prior to use in actual experiments. Data from a reference cell containing goat anti-human IgG capture antibody alone was subtracted from data obtained from flow cells containing captured VLA4-Fc or LPAM-1-Fc. Typically, 8 dilutions of 2D-VCAM-1 variant polypeptides ranging from 150 nM to 0.069 nM were analyzed against a blank reference (HBS-P-Mn buffer alone).

The target in test [2] is human VLA4 (integrin alpha4beta1) on the surface of U937 cells (human, UniProt P13612 34-1032; P05556 21-798). Briefly: cell-based or functional assay.
human VLA4 (integrin alpha4beta1) on the surface of U937 cells, sequence (P13612 34-1032, chain 1 of 2): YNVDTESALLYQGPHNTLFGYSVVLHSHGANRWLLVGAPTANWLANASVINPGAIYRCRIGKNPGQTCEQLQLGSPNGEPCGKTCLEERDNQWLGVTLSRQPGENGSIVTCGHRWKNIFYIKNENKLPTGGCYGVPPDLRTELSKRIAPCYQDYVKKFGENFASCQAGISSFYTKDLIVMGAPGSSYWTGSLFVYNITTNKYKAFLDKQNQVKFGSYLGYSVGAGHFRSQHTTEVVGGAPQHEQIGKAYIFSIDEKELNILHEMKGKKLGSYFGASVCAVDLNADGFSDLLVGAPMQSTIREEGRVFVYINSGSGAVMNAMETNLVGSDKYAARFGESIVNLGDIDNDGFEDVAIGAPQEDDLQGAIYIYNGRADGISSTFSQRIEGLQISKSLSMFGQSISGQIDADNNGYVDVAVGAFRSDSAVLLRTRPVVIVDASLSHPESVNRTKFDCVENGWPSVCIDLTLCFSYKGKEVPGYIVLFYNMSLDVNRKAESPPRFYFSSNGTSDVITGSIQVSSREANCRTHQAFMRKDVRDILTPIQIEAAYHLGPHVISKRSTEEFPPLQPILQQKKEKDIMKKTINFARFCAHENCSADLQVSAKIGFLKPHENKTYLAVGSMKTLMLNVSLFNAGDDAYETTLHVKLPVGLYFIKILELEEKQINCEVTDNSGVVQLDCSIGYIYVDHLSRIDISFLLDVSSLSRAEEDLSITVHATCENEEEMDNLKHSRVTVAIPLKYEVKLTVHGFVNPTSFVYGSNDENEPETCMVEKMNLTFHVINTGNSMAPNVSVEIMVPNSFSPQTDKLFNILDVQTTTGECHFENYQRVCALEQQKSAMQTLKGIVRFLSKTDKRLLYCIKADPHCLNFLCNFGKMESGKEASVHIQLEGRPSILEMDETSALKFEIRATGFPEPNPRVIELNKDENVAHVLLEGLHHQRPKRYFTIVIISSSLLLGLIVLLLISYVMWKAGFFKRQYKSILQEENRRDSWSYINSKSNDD
human VLA4 (integrin alpha4beta1) on the surface of U937 cells, sequence (P05556 21-798, chain 2 of 2): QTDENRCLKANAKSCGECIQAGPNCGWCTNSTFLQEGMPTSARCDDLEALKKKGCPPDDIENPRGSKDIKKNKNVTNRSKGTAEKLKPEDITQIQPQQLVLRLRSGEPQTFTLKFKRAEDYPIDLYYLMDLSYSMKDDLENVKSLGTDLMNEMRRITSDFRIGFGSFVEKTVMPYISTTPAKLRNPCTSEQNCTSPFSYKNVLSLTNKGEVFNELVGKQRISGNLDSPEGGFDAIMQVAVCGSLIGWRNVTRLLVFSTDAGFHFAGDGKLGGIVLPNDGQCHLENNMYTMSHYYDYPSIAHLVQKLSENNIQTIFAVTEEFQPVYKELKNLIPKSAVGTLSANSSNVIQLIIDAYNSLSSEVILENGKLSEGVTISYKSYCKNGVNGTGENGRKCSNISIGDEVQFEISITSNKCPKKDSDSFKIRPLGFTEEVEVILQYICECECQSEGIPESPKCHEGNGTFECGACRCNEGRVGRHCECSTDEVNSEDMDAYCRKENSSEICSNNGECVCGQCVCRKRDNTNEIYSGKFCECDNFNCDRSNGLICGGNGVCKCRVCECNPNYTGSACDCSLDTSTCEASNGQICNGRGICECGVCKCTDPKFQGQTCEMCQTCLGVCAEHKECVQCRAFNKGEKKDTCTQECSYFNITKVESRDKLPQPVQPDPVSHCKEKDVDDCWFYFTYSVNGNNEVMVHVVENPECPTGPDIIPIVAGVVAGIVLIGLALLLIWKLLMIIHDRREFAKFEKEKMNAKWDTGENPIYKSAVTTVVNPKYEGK
Test [3] addresses T1, human VLA4-Fc (alpha4-Fc/beta1-Fc …). In words: ELISA, VLA4-Fc coated, 1 mM MnCl2; from EC50 values. How it is done: The relative binding affinities of various 2D-VCAM-1 variants to immobilized VLA4-Fc (α4-β1-Fc) heterodimer, relative to a control protein (e.g., Q38L-2D-VCAM-1 or to human 2D-VCAM-1), were deter using a solid-phase ELISA assay. MAXISORP™ ELISA plates (NUNC) were coated overnight at 4° C. with 50 ul VLA4-Fc heterodimer, 2 ug/ml in TBS-M (TBS (25 mM Tris-HCl pH 7.5, 150 mM NaCl) with 1 mM MnCl2), washed with TBS-T (TBS with 0.05% TWEEN-20), blocked with 200 ul 3% milk in TBS-M for 1 h at room temperature, and washed again with TBS-T. A four-fold dilution series of the purified 2D-VCAM variants to be assayed was made in COSTAR U-bottom plates in TBS-TMC (TBS with 0.05% Tween-20, 1 mM MnCl2, and 1% casein; Sigma) with a starting concentration of 8.2 uM (200 ug/ml). The dilution series was transferred into the ELISA plate which was incubated at room temperature for 2 h and subsequently washed with TBS-T. Bound 2D-VCAM protein was detected by incubation with 0.5 ug/ml of biotinylated anti-human VCAM antibody (R&D Systems, Catalog No. BAF809) in TBS-TMC for 1 h at room temperature followed by a TBS-MT (TBS plus 1 mM MnCl2 and 0.02% TWEEN-20) wash and subsequent incubation with 1:2000 dilution of streptavidin-HRP (BD Biosciences, Catalog No. 554066) in TBS-TMC for 30 min at room temperature. […] Typical development times ranged from […] and development was stopped by addition of 50 ul 2M H₂SO₄ (EM, Catalog No. SX1244-75). […] Fold-improvement in binding was calculated relative to a control protein (e.g., Q38L-2D-VCAM-1 or human 2D-VCAM-1) assayed on the same plate.

The target is the same in test [4]. In words: SPR (BIACORE), VLA4-Fc captured by anti-human IgG, 1 mM MnCl2, 1:1 Langmuir; standard BIACORE assay, first preparation (Table 5A); KD ratio relative to human 2D-VCAM-1. How it is done:
The kinetic 2D-VCAM-1 assay measures binding kinetics of a dimeric ligand (e.g., VLA-Fc fusion protein or LPAM-1-Fc fusion protein) coated to sensor chips and monomeric analyte (e.g., 2D-VCAM-1 variant polypeptides) in the mobile phase. Goat anti-human IgG antibody (Jackson ImmunoResearch, Catalog No. 105-005-098) was immobilized on CM-5 sensor chips (GE Healthcare, Catalog No. BR-1000-14) according to the manufacturer's protocol. Antibody was diluted to 30 μg/ml in immobilization buffer (10 mM sodium acetate, pH 5.0 (GE Healthcare, Catalog No. BR-1003-51)). […] Un-reacted sites were quenched with 35 μl of 1 M ethanolamine-HCl pH 8.5 (GE Healthcare, Catalog No. BR-1000-50). This procedure typically yielded 15,000 response units (RU) of coupled antibody. VLA4-Fc or LPAM-1-Fc, prepared as described in Examples 3 and 4, respectively, were bound to antibody-coated sensor chips by injection of 20 μl of ligand solution (20 μg/ml protein in HBS-P-Mn buffer at a flow rate of 10 μl/min). Ligand capture levels were typically 200-300 RU. […] Typically, 8 dilutions of 2D-VCAM-1 variant polypeptides ranging from 150 nM to 0.069 nM were analyzed against a blank reference (HBS-P-Mn buffer alone).
(In general: SPR reads the build-up and loss of mass on a sensor chip optically.)

For test [5] the target is unchanged. Briefly: ELISA, VLA4-Fc coated, 1 mM MnCl2; from EC50 values; ELISA, VLA4-Fc coated on plate, 1 mM MnCl2 (activated VLA4); fold relative to Q38L-2D-VCAM-1. How it is done: The relative binding affinities of various 2D-VCAM-1 variants to immobilized VLA4-Fc (α4-β1-Fc) heterodimer, relative to a control protein (e.g., Q38L-2D-VCAM-1 or to human 2D-VCAM-1), were deter using a solid-phase ELISA assay. […] The dilution series was transferred into the ELISA plate which was incubated at room temperature for 2 h and subsequently washed with TBS-T. Bound 2D-VCAM protein was detected by incubation with 0.5 ug/ml of biotinylated anti-human VCAM antibody (R&D Systems, Catalog No. BAF809) in TBS-TMC for 1 h at room temperature followed by a TBS-MT (TBS plus 1 mM MnCl2 and 0.02% TWEEN-20) wash and subsequent incubation with 1:2000 dilution of streptavidin-HRP (BD Biosciences, Catalog No. 554066) in TBS-TMC for 30 min at room temperature. […] Fold-improvement in binding was calculated relative to a control protein (e.g., Q38L-2D-VCAM-1 or human 2D-VCAM-1) assayed on the same plate.
(In an ELISA, binding on a coated surface is turned into a signal by an enzyme label.)

Here are results for five molecules from US20120135912A1 (PERSEID THERAPEUTICS, published 2012).

Positions count from the first letter of the chain named. In names and notes the source's numbering stands. Several values for one entry are separate records, joined by “and”; a condition that tells them apart may be missing. Equal values may be shown once.

T1 sequence (chain, as listed by the source limits assumed, form in doubt, chain 1 of 2): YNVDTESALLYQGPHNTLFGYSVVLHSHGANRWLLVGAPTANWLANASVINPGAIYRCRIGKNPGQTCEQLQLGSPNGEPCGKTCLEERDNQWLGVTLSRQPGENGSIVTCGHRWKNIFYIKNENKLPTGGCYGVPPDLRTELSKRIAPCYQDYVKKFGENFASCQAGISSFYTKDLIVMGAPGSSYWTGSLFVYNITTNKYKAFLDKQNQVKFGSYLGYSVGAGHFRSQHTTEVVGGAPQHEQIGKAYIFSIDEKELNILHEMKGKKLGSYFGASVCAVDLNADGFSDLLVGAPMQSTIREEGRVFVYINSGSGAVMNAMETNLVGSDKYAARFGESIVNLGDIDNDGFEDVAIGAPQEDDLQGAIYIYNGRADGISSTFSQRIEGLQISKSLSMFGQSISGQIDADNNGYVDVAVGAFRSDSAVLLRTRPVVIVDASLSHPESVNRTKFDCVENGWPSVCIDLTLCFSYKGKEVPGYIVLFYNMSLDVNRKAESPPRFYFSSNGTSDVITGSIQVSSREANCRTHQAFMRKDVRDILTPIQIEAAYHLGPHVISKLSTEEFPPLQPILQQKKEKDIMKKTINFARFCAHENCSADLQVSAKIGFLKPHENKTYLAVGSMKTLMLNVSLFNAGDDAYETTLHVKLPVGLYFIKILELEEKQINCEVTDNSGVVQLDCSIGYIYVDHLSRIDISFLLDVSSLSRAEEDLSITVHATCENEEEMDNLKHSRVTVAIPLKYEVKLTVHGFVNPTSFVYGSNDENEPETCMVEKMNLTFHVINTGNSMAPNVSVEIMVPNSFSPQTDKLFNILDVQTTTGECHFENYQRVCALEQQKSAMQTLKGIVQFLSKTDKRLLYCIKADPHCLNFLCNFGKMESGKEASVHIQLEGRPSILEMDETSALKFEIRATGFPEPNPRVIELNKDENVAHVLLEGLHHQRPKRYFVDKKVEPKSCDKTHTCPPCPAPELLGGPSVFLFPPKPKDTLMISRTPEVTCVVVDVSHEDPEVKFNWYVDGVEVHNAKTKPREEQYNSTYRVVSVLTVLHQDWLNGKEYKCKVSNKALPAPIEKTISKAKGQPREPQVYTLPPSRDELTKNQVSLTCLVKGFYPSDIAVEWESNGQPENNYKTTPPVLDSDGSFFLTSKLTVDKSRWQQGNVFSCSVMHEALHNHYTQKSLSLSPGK
T1 sequence (chain, as listed by the source limits assumed, form in doubt, chain 2 of 2): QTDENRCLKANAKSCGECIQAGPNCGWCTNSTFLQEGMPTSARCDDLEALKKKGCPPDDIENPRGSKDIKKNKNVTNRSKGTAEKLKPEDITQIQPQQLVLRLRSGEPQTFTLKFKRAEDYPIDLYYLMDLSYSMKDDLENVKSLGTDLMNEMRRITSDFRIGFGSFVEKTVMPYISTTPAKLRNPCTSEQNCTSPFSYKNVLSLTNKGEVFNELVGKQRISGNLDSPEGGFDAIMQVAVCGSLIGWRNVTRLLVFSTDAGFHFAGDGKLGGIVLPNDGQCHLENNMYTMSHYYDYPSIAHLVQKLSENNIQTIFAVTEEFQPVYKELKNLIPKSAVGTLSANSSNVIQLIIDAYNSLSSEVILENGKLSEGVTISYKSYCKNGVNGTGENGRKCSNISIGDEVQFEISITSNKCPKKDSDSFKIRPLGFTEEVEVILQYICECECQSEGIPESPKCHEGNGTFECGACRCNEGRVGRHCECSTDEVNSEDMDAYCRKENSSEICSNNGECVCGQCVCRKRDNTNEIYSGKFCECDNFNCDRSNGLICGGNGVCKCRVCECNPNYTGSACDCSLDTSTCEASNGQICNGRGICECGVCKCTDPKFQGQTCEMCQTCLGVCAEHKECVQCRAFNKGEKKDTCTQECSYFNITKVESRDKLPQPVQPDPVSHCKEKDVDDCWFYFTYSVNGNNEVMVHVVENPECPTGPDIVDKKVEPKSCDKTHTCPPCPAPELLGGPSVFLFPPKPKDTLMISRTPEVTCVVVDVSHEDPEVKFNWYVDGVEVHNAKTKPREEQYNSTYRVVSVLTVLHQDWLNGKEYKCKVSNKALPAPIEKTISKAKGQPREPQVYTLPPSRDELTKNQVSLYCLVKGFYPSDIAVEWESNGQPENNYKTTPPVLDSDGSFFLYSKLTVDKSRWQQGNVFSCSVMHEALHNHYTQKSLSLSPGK

B1: 2D-VCAM-1 variant Clone 46 (ligand)
chain: FKIETTPESRYLAQIGDSVSLTCSTTGCESPFFSWRPQLDAPLNGKVTNEGTTSTLTMNPVSFGNEHSYLCTATCESRKLEKGIQVEIYSFPKDPEIHLSGPLEAGKPITVKCSVADVYPFDRLEIDLLKGDHLMKSQEFLEDADRKSLETKSLEVTFTPVIEDIGKVLVCRAKLHIDEMDSVPTVRQAVKELQVYISP
notes: also called Clone 046; not shown: His tag
The term Kd denotes the free concentration of one partner at which half of the binding sites on the other are occupied at equilibrium, for simple one-to-one binding. A high value points to lower affinity. Consider B1, for which the Kd in test [1] came to 1950 pM. Moreover, in test [2], the “IC50 of inhibition of U937 cell adhesion to immobilized 7D-VCAM-1” value was 6.4 nM and 0.16 mg/ml. Also, in test [3], the “fold-improvement in binding relative to Q38L-2D-VCAM-1” value came out at 21 fold and the “fold-improvement in binding relative to human 2D-VCAM-1” value came out at 172 fold.

B2: 2D-VCAM-1 variant Clone 47 (ligand)
chain: B1 chain with Q38L, A41S
notes: also called Clone 047; not shown: His tag
B2 registered a Kd in test [1] of 680 pM. For the same molecule, in test [3], the “fold-improvement in binding relative to Q38L-2D-VCAM-1” value was 16 fold and the “fold-improvement in binding relative to human 2D-VCAM-1” value worked out at 128 fold.

B3: 2D-VCAM-1 variant Clone 59 (ligand)
chain: B1 chain with Q38L, A41S, L141F, D145A, R146W
notes: also called Clone 059; not shown: His tag
Take B3: in test [1], the Kd stood at 95 pM. In addition, in test [3], the “fold-improvement in binding relative to Q38L-2D-VCAM-1” value came to 34 fold and the “fold-improvement in binding relative to human 2D-VCAM-1” value came out at 272 fold.

B4: Q38L-2D-VCAM-1 (ligand)
chain: B1 chain with P37T, Q38L, L39I, A41S
notes: also called Q38L 2D-VCAM-1 polypeptide; not shown: His tag
In the case of B4, in test [3], the “fold-improvement in binding relative to Q38L-2D-VCAM-1” value came out at 1 fold and the “fold-improvement in binding relative to human 2D-VCAM-1” value came to 8 fold.

B5: 2D-VCAM-1 variant Clone 146 (ligand, not shown: small tags and cut ends)
chain: B1 chain with F32L, S34F, Q38L, A41S, T74R, K79S
As for B5, the “binding affinity for VLA4-Fc relative to human 2D-VCAM-1” value in test [4] came out at 306 fold. The “IC50 of inhibition of U937 cell adhesion to immobilized 7D-VCAM-1” value in test [2] is 0.8 nM and 0.02 mg/ml. Besides, the “fold-improvement in binding relative to Q38L-2D-VCAM-1” value in test [5] turned out to be 37 fold.
